From paper PMC6687101

Target: HBV envelope proteins (HBs; L, M and S forms) on HBV virions and subviral particles (hepatitis B virus) (UniProt P03138)
Test: co-IP; 50 µg apoE mAb23 or anti-HBs coupled to protein G agarose, mixed with 10 µL CsCl-purified HBV (fraction 7) at 4 °C overnight; HBcAg detected by WB and HBV DNA by qPCR (input = 100%); normal mouse IgG as control

Substance: HBV core protein (from UniProt P03146 1-183) (natural protein)
- percent of HBV precipitated through HBs (HBV DNA by qPCR): > 95%
